Read-outs that look alike come from different tables or passages of the source.

The target in test [1] is T1, CD25 on CD4+CD25+ Treg cells isolated from human PBMCs (human, UniProt P01589 22-272).
T1 sequence (looked up): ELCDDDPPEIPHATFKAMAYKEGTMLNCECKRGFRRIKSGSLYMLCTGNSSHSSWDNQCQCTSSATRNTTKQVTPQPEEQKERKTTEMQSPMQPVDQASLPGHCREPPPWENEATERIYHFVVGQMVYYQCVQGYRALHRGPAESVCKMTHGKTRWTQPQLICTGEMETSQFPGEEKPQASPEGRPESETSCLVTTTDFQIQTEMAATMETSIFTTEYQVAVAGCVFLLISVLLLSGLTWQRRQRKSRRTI
Description: cell-based or functional assay.

In test [2] the target is T2, human CD25 (NP_000408.1) (Met 1-Cys 213) C-terminally fused with 6-histidine tag (human, UniProt P01589 22-213).
T2 construct: range 1-213; Expressed in CHO-K1 cells; also called human CD25-his
T2 sequence: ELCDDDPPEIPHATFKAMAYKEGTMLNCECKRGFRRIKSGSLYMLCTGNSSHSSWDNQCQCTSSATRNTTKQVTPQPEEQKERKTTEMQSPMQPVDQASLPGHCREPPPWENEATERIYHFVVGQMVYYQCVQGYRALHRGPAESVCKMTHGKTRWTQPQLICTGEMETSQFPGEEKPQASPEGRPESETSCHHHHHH
Description: SPR (BIAcore X100), human CD25-his captured by anti-histidine antibody, antibody as analyte, 1:1 model.

For test [3], the target named is T1, CD25 on CD4+CD25+ Treg cells isolated …. As to the kind of experiment: cell-based or functional assay. The source holds these as a separate data set.
The target in test [4] is T3, cyno CD25-his (NCBI-H6WS54, Met1-Arg213) (cyno).
T3 construct: range 1-213; Range begins at Met1 (includes the signal peptide)
Description: ELISA, cyno CD25-his coated.

Test [5] concerns the target T2, human CD25 (NP_000408.1) (Met 1-Cys …). As to the kind of experiment: ELISA, human CD25-his coated. (In general: ELISA stands for enzyme-linked immunosorbent assay.)
Test [6] addresses T4, Mouse CD25-his (UniProtKB-P01590, Met1-Lys213) (mouse, UniProt P01590 22-213).
T4 construct: range 1-213; Range begins at Met1 (includes the signal peptide); not shown: his tag
T4 sequence (looked up): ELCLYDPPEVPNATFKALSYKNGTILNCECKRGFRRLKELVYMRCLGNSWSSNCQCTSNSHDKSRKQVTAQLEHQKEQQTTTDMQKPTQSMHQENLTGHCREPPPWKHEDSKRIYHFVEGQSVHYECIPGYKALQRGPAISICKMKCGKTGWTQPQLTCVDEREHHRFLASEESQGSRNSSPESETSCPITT
As to the kind of experiment: ELISA, mouse CD25-his coated.

Test [7] has as its target T5, human CD25 on CHO-K1/hCD25 cells (human, UniProt P01589 22-272).
T5 construct: whole, on cells; The construct of the cell line is not described
T5 sequence (looked up): T1 sequence (looked up)
Description: flow cytometry on CHO-K1/hCD25 cells. On the technique in general: Flow cytometry measures light scatter and fluorescence of single cells or particles in a stream.

The target of test [8] is T2, human CD25 (NP_000408.1) (Met 1-Cys …). As to the kind of experiment: SPR (BIAcore X100), human CD25-his captured by anti-histidine antibody, antibody as analyte, 1:1 model. The source holds these as a separate data set. In general terms: Surface plasmon resonance follows binding to a sensor surface in real time, without labels.

B1: humanized antibody 2046-18H1L1-m2 (antibody, human IgG1, kappa, V domains shown)
VH: EVQLQESGPGLVKPSQTLSLTCTVSGYSITSDYAWNWIRQPPGKGLEWIGYISYSGITIYNPSLKSRVTISRDTSKNQFSLKLSSVTAADTAVYYCARWLLQIYYAMDYWGQGTLVTVSS
VL: EIVLTQSPGTLSLSPGERATLSCSSSQSLVHSNGNTYLHWYQQKPGQAPRLLIYKVSNRFSGIPDRFSGSGSGTDFTLTISRLEPEDFAVYYCSQSTHVPLTFGQGTKLEIKR
On to B1, for which the “EC50, killing Tregs in vitro (ADCC reporter, jurkat/CD16a/NFAT-luc)” value (shortened to “EC50 … (ADCC reporter, jurkat/CD16a/NFAT-luc)”) in test [1] was 82.6 µg/mL. Also, in test [2], the Kd – broadly, the constant that tells how readily two partners part at equilibrium – was determined as 2.45 nM; the dissociation rate constant (koff) (commonly the rate constant with which the complex falls apart) was found to be 0.00137 s⁻¹; the kon (commonly the second-order rate constant of association) stood at 560000 M⁻¹ s⁻¹.

B2: chimeric antibody 2046-36H2L1 (antibody, human IgG1, kappa, V domains shown)
VH: QIQLVQSGPELKKPGETVRISCKASGYTFTTAGMQWVQKMPGKGLKWIGWINTHSGVPKYAEDFKGRFAFSLETSASTAYLQISNLKNEDTATYFCASDYAFGYWGQGTLVTVSA
VL: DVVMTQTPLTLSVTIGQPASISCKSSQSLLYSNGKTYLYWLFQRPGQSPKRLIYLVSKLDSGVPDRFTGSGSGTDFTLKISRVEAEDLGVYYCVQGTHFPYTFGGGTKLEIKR
notes: Chimeric, human IgG1/kappa; also called 2046-36ix
For B2, in test [3], the “EC50 … (ADCC reporter, jurkat/CD16a/NFAT-luc)” value amounted to 52.4 µg/mL and the “Relative activity (%) compared with 686, killing Tregs in vitro” value was determined as 248%. For the same molecule, in test [4], the half-maximal effective concentration (EC50) (as a rule, the concentration that produces a half-maximal response) came to 0.0549 µg/mL. For the same molecule, in test [5], the EC50 came to 0.103 µg/mL and the “Relative activity (%) compared with 686” value stood at 101%. In addition, the binding result in test [6] was “no binding (tested: starting at 100 ng/mL)”. Further, in test [7], the response was half-maximal at 0.00167 µg/mL (EC50) and the “Relative activity (%) compared with 686” value was found to be 73.3%. Besides, in test [8], the Kd stood at 2.45 nM, the koff was 0.00933 s⁻¹ and the kon was determined as 3.8e+06 M⁻¹ s⁻¹.

B3: chimeric antibody 2047-10H1L2 (antibody, human IgG1, kappa, V domains shown)
VH: QVQLQQSGPELVRPGVSVKISCKGSGYTFTDYAMHWVKQSHAKSLEWIGVISTYNGNTNYNQKFKGKATMTVDKSSSTAYMELARLTSEDSAIYYCARSYGNYPFDYWGQGTTLTVSS
VL: DIKMTQSPSSMYASLGERVTITCKASQDINSYLSWFQQKPGKSPKTLIYRANRLVDGVPSRFSGSGSGQDYSLTISSLEYEDMGIYYCLQYDEFPYTFGGGTKLEIKR
notes: Chimeric, human IgG1/kappa; also called 2047-10ix
Take B3: in test [3], the “EC50 … (ADCC reporter, jurkat/CD16a/NFAT-luc)” value was 41.4 µg/mL and the “Relative activity (%) compared with 686, killing Tregs in vitro” value was found to be 314%. In test [4], this molecule yielded an EC50 of 2.6 µg/mL. Also, in test [5], it took 0.186 µg/mL to reach a half-maximal effect (EC50) and the “Relative activity (%) compared with 686” value worked out at 56%. Besides, the binding result in test [6] is reported as “no binding (tested: starting at 100 ng/mL)”. Also, in test [7], the EC50 was 0.00246 µg/mL and the “Relative activity (%) compared with 686” value was found to be 120%. Besides, in test [8], the equilibrium dissociation constant (Kd) came out at 15.5 nM, the off-rate constant (koff) came to 0.0122 s⁻¹ and the kon worked out at 788000 M⁻¹ s⁻¹.

The values above are taken from EP4386000A1 (Nanjing Novoacine Bio-Technology Co., Ltd., dated 2024).
